Laboratory results published in the nanobody polyreactivity screen of Harvey et al. (2022).

Assay: yeast display, Sf9 membrane polyspecificity reagent, FACS + sequencing; frameworks hold sequencing errors
Procedure, shortened: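 Nanobodies from a synthetic yeast display library (Saccharomyces cerevisiae BJ5465), induced 36–48 hours with galactose, were stained 1 hour at 4 °C with 10% biotinylated, detergent-solubilized Sf9 membrane reagent, enriched on streptavidin microbeads, then FACS-sorted. Anti-HA (expression) and streptavidin (reagent binding) fluorescence set low and high (top ~1%) gates. Polyreactivity labels come from the gate of origin. Genes were colony-PCR amplified, MiSeq 2 × 250 sequenced and filtered by CDR length.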

Row | Sequence | polyreactivity (PSR sort gate)
1 | QVQLVESGGGLVQAGGSLRLSCAASGSTFGRYAMGWYRQARGKERELVAAISYGDGSTYYADSVKGRFTISRDYAKNTVYLQINSLIPEDTAVYYCATETETYSCWDPVWADDYDYWGQGTQVTVSS | low polyreactivity
2 | QVQLVESGGGLVQAGGSLRLSCAASGSTFGRYAMVWYRQAPGKEREFVAGITGRGGSTYYADSVKGRFTISRDNAKNTVYLQMKSLKPEVNAVYYSAAGYRVGYRYDYWGQCTQVTVSS | high polyreactivity
3 | QVQLVESGGGLVQAGGSLRLSCAASGSTFGRYVMGWYRQAPGKERELVAAISKNAGSTYYADSVKGRFTISRDNAKNTVYLQMNSLKPEDTAVYYCAADWRTKGYDSLGQGTQVTVSS | high polyreactivity
4 | QVQLVESGGGLVQAGGSLRLSCAASGSTFGRYVMGWYRQAPGKEWELVAAISGSGGSTYYADSVKGRFTISRDNAKNTVDLQMNSLKPEDTAVYYCAAGGPTYELYRRGYWGQGTQVTVSS | high polyreactivity
5 | QVQLVESGGGLVQAGGSLRLSCAASGSTFGSYAMGWYRPAPGKERELVAAISYSGGSTYYADSVKGRFTISRDNAKNTVYLQMNSLKPEDTAVYYCATVRKYRAMVYWGQGTQVTVSS | high polyreactivity
6 | QVQLVESGGGLVQAGGSLRLSCAASGSTFGSYAMGWYRQAPGKERELVAAISRAGSTYADSVKGRFTISRDNAKNTVYLQMNSLKPEDTAVYYCAKRDNALYYGYDYWGQGTQVTVSS | low polyreactivity
7 | QVQLVESGGGLVQAGGSLRLSCAASGSTFGSYAMGWYRQAPGKERELVAAITASGGSTYYADSVKGRFTISRDNAKNTVYLQMNSLKPEDTAVYYCAADTTYIPLSIEYDYWGQGTQVTVSS | low polyreactivity
8 | QVQLVESGGGLVQAGGSLRLSCAASGSTFGSYAMGWYRQAPGKERELVAAITQIGGSTYYADSVKGRFTISRDNAKNTVYLQMNSLKPEDTEVYYCAVTAGRGGYPQGGVTRGYWGQGTQVTVSS | high polyreactivity
9 | QVQLVESGGGLVQAGGSLRLSCAASGSTFGSYVMGWYRQAPGKERELVAAISGSGGSTYYADSVKGRFTISRDNAKNTVYLQMTSLKPEDTAVYYCAAYVFFPWYGYWGQGTQVTVSS | high polyreactivity
10 | QVQLVESGGGLVQAGGSLRLSCAASGSTFGTNAMGWSRQAPGKERELVAAITYSGGSTYYADSVKGRFTISRDNAKNTVYVQLNSLKPEDTAVYYCAARGHSSKYLWSYEYYYWGQGTQVTVSS | low polyreactivity
11 | QVQLVESGGGLVQAGGSLRLSCAASGSTFGTNVMGWYRQAPGKERELVAAISNGGSTNYADSVKGRFTISRDNAKNTVYLQMNSLKPEDTAVYYCEYDYWGQGTQVTVSS | low polyreactivity
12 | QVQLVESGGGLVQAGGSLRLSCAASGSTFGTYAMGWYRQAPGKERELVAAISWSGGSTYYADSVKGRFTISRDKAKNTVYLQMNSLKPEDTAVYWGQGTQVTVSS | low polyreactivity
13 | QVQLVESGGGLVQAGGSLRLSCAASGSTFGTYAMGWYRQAPGKERELVATISIGGITYYADSVKGRFTISRDNAKYTVYLQMNSLKPEDTAVYYCAKDVTDPTSRSDPSGDDYWGQGTQVTVSS | low polyreactivity
14 | QVQLVESGGGLVQAGGSLRLSCAASGSTFGVNAMGWYRPAPGKERELVAAISSSGSSTYADSVKGRFTISRDNAKNTVYLQMNSLKPEDTAVYYCNKTTLLTVEYDYWGQGTQVTVSS | low polyreactivity
15 | QVQLVESGGGLVQAGGSLRLSCAASGSTFGVNAMGWYRQAPGKERELVAVITRSGGSTYYADSVKGRFTISRDNAKNTFNLQMNSLKPEDSAVYYCNTEGGRDTAWYDYWGQGTEVTVSS | low polyreactivity
16 | QVQLVESGGGLVQAGGSLRLSCAASGSTFGVNDMGWYRQAPGKEREFVADITTSGGSTYYADSVKGRFTISRDHAKNTVYLQMNSLKPEDTAVYYCAADLWPFEHDDYWGQGTQVTVSS | low polyreactivity
17 | QVQLVESGGGLVQAGGSLRLSCAASGSTFGVYAMGWYRQAPGKERELVAAITKRGGDTYYADSVKGRFTISRDNAKNTVYLQMNSLKPEDTAVYYCAAGLYVSYYWYDYWGQGTQVTVSS | high polyreactivity
18 | QVQLVESGGGLVQAGGSLRLSCAASGSTFGVYAMGWYRQAPGKERELVARITSGGSTYYADSVKGRFTITRDNAKKTVYLQRNSLKPEDTAVYYCAAVYRRTRSWKFDYWGQGTQVTVAS | high polyreactivity
19 | QVQLVESGGGLVQAGGSLRLSCAASGSTFGVYTMGWYRQAPGKERELVAAITKSGGSTYYADSVKGRFTISRDNAKNTVYLQMNSLKPEDTAVYYCAADATSPLTWFDYWGQGTQVTVSS | low polyreactivity
20 | QVQLVESGGGLVQAGGSLRLSCAASGSTFGWNAMGSYRQAPGKERELVAAISSSGGITYYADSVKGRFTISRDNAKNTVYLQMNSLKPEDTAVYYCAARAINTWFRSGVDYGYYLTMDYWGQGTQVTVSS | low polyreactivity
21 | QVQLVESGGGLVQAGGSLRLSCAASGSTFGWNAMGWYRPAPGKERELVAAISSSGGSTNYADSVKGRFTISRDNAKNTVYLQMNSLKPEDTAVYYCAARYRTLTKYYWGQGTQVTVSS | low polyreactivity

Row | Sequence | polyreactivity (PSR sort gate)
22 | QVQLVESGGGLVQAGGSLRLSCAASGSTFGWNAMGWYRQAPGKERELVAAINKSGGRTYYADSVKGRFTISRDNGKNTVYLQMNRLKPEDTAVYYCAAVTPIRVTSPDYDYWGQGTQVTVSS | low polyreactivity
23 | QVQLVESGGGLVQAGGSLRLSCAASGSTFGWYGMGWYRQAPGKERELVASIRWSGGITYYADSVKGRFTISRDNAKNTVYLQMNSLKPEDTAVYSCAARTYRYFGRYDYWGQGTQVTVSS | high polyreactivity
24 | QVQLVESGGGLVQAGGSLRLSCAASGSTFGYNAMGWYRQAPGKERELVAAISYSGGSTSYADSVKGRFTLSRDNEKNTVYVQMNSLKPVDAAVYYCARESYSQYSSQALEGYGYWGQGTQVTVSS | low polyreactivity
25 | QVQLVESGGGLVQAGGSLRLSCAASGSTFGYNGMGWYRQAPGKERELVAAISGGARTYADSVKGRFTISRDNAKNTVYLQMNSLKPEDTAVYYCAADSPVSVTADDGYWGQGTQVTVSS | low polyreactivity
26 | QVQLVESGGGLVQAGGSLRLSCAASGSTFGYNTMGWYRQAPGKERELVASITGRGGSTYYADSVKGRFTISRDNAKNTVYLQMNSLKPEDTAVYYCAAAWKAYRRYGYWGQGTQVTVSS | high polyreactivity
27 | QVQLVESGGGLVQAGGSLRLSCAASGSTFGYNTMGWYRQAPGKEREWVAAITGTGRTNYADSVKGRFTISRDNAKNTVYLQMNSLKPEDTAVYYCAASLWQRAIGRYEYWGQGTQVTVSS | high polyreactivity
28 | QVQLVESGGGLVQAGGSLRLSCAASGSTFGYYAMGWYRQAPGKERELVAAINSGDSTSYAESVKGRFTISRDNAKNTVYLQMNSLKPEDTAVYYCAVRPRRHQYGYWGQGTQVTVSS | low polyreactivity
29 | QVQLVESGGGLVQAGGSLRLSCAASGSTFGYYAMGWYRQAPGKERELVAAISVRGGRTYYADSVKGRFTISRDNAKNTVYVQMKSLKPEDTAVYYCATLLPGLGRYGYDYWGQGTQVTVSS | high polyreactivity
30 | QVQLVESGGGLVQAGGSLRLSCAASGSTFGYYAMGWYRQAPGKERELVAAITSGGSTYYADSVKGRFTISRDNAKNTVYLQMNSLKPEDTAVYYCNRTYYWYWRYDYWGQGTQVTVSS | low polyreactivity
31 | QVQLVESGGGLVQAGGSLRLSCAASGSTFGYYAMGWYRQAPGKERELVASINWRGDSTYYADSVKGRFTISRDNAKNTVYLQMNSLKPEDTAVYYCNVKPSARGSPLYDYWGQGTQVTVSS | high polyreactivity
32 | QVQLVESGGGLVQAGGSLRLSCAASGSTFGYYAMGWYRQAPGKERELVASISSRGGSTYYADSVKGRFTISRDNAKNTVYLQMNSLKPEDTAVYSCAARYGGFPVPGRYNYWGQGTQVTVSS | high polyreactivity
33 | QVQLVESGGGLVQAGGSLRLSCAASGSTFGYYAMGWYRQAPGKERELVATINRSGGSTYYADSVKGRFTISRDNAKYTVYLQMNSLKPEDTAVYYCNKLAYAGFRYIGSGYWGQGTQVTVSS | low polyreactivity
34 | QVQLVESGGGLVQAGGSLRLSCAASGSTFGYYAMGWYRQAPGKERELVATITIGGSTHYADSVKGRFTISRDNAKNTVYLQMNSLKPEDTAVYYCAARYAYYTARYTQVKGLDYWGQGTQVTVSS | high polyreactivity
35 | QVQLVESGGGLVQAGGSLRLSCAASGSTFGYYAMGWYRQAPGRERELVAAISYRSGSTYYADSVKGRFTISRDNAKNTVYLQMNSLKPEDTAVYYCAARFGRGSRYYYWGQGTQVTVSS | high polyreactivity
36 | QVQLVESGGGLVQAGGSLRLSCAASGSTFGYYTMGWYRQAPGKERELVAAISGSGGRTYYADSVKGRFTISRDNAKKTVNLQMNSLKPEDTAVYYCAAEGRSDWGGDDYYWGQGTQVTVSS | low polyreactivity
37 | QVQLVESGGGLVQAGGSLRLSCAASGSTFHANAMGWYRQAPGKERELVAAISRSGGSTNYADSVKGRFTISRDNAKNTVYLQMNSLKPEDTAVYYCAKRAWTGYGYYYWGQGTQVTVSS | high polyreactivity
38 | QVQLVESGGGLVQAGGSLRLSCAASGSTFHFYAMGWYRQAPGKERELVASITSRGGNTHYADSVKGRFTISRDNAKNTVYLQMNSLKPEDTAVYYCAARGGWYGTYDYWGQGTQVTVSS | low polyreactivity
39 | QVQLVESGGGLVQAGGSLRLSCAASGSTFHINAMGWYRQAPGKERELVADINWSGGSTYYADSVKGRFTISRDNAKNTVYLQMNSLKPEDTAVYYCAADVGVFTYSPYDAGEHDYWGQGTQVTVSS | low polyreactivity
40 | QVQLVESGGGLVQAGGSLRLSCAASGSTFHKNAMGWYRQAPGKERELVAGITKRGGSTYYADSVKGRFTISRDNAKNTVYLQMNSLKPEDTAVYYCNADFPVGRTEYDYWGQGTQVTVSS | low polyreactivity
41 | QVQLVESGGGLVQAGGSLRLSCAASGSTFHPYAMGWYRQAPGKERELVAAITWRVGSTYYADSVKGRFTISRDNAKNTVYLLINCLKPEDTAVYYCAVSYLSTLGRSRYDYWGQGTQVSVSS | low polyreactivity
